These are literature values, as cited in publication PMC8165686.

The target of this data set is Spike RBD (SARS-CoV-2) (UniProt P0DTC2).

For the substance “ACE2 23-mer peptide 21-43 (from UniProt Q9BYF1)”, the Kd (in general, a measure of binding affinity in units of concentration) is 47 nM.
